Assay results from patent US20230058316A1, “PEGYLATED IGE-DEPENDENT HISTAMINE-RELEASING FACTOR (HRF)-BINDING PEPTIDE AND USE THEREOF” (EWHA UNIVERSITY - INDUSTRY COLLABORATION FOUNDATION, priority 2020, published 2023).
Where two headings read alike, the source gives them in different places. Where no end group is shown, it is not given here.

How the values were obtained:
[1] = tested on: eosinophils in bronchoalveolar lavage fluid; assay: Eosinophil increase in bronchoalveolar lavage fluid, ovalbumin-induced bronchial asthma and rhinitis mouse model; type: in vivo; conditions: 1 mg/kg IP, 8 times daily for 8 days, FIG. 9
Procedure: (§1) A bronchial asthma and rhinitis animal model was prepared by the following method. An ovalbumin solution was prepared by dissolving ovalbumin in an aluminum hydroxide solution (1 mg/ml) 28 and 14 days before the start of inducing bronchial asthma and rhinitis, and 200 μl of the solution was intraperitoneally injected into each mouse for sensitization. After 14 days of final sensitization, 20 μl of saline/PBS (normal control; NC) or 20 μl of 10 mg/mL ovalbumin solution (positive control; PC) was instilled into the nasal cavity of each lightly anesthetized mouse 4 times every other day for 8 days to induce bronchial asthma and rhinitis.
After anesthetizing the mouse by injecting a mixture of zoletil (250 mg/kg) and rompun (50 mg/kg) intraperitoneally, a 20-gauge catheter was inserted into the trachea by puncturing the trachea with a knife, and 0.6 mL of PBS at a time was injected-collected three times, and the collection rate was adjusted to 80%. The collected bronchoalveolar lavage fluid was centrifuged at 4° C., 3000 rpm for 10 minutes, and the cell precipitate was resuspended in 0.1 mL of PBS. 20 μL of the suspension was analyzed for the composition of blood cells using a fully automatic hematology analyzer (HEMAVET 950 FS, Drew Scientific, Inc.).

[2] = tested on: IL-4; assay: IL-4 secretion in bronchoalveolar lavage fluid, ovalbumin-induced bronchial asthma and rhinitis mouse model; type: in vivo; conditions: 1 mg/kg IP
Procedure: as §1
After the end of the experiment, the amount of IL-4 in the supernatant obtained by centrifuging bronchoalveolar lavage fluid was measured and quantified by enzyme immunosorbent detection using mouse IL-4 ELISA kit (Biolegend, USA).
Next, in order to confirm whether there is an effect of inhibiting IL-4 secretion even when administered in a small number of times, the dTBP2 of Preparative Example 4 and Example 3 was administered to the mouse model of Example 4-1 through intraperitoneal injection once in 4 days for a total of 2 times for 8 days inducing bronchial asthma and rhinitis. The amount of IL-4 was measured and quantified by the enzyme immunosorbent detection method in the same manner.
In addition, the dTBP2 of Preparative Example 4 and Example 3 was administered to the mouse model of Example 4-1 through intraperitoneal injection once on the 1st day of 8 days inducing bronchial asthma and rhinitis. The amount of IL-4 was measured and quantified by the enzyme immunosorbent detection method in the same manner.
The amount of IL-4 was measured and quantified by the enzyme immunosorbent detection method in the same manner.

[3] = tested on: IL-13; assay: IL-13 secretion in bronchoalveolar lavage fluid, ovalbumin-induced bronchial asthma and rhinitis mouse model; type: in vivo; conditions: 1 mg/kg IP
Procedure: as §1
After the end of the experiment, the amount of IL-13 in the supernatant obtained by centrifuging bronchoalveolar lavage fluid was measured and quantified by enzyme immunosorbent detection using mouse IL-13 ELISA kit (R&D system, USA).
Next, in order to confirm whether there is an effect of inhibiting IL-13 secretion even when administered in a small number of times, the dTBP2 of Preparative Example 4 and Example 3 was administered to the mouse model of Example 4-1 through intraperitoneal injection once in 4 days for a total of 2 times for 8 days inducing bronchial asthma and rhinitis. The amount of IL-13 was measured and quantified by the enzyme immunosorbent detection method in the same manner.
In addition, the dTBP2 of Preparative Example 4 and Example 3 was administered to the mouse model of Example 4-1 through intraperitoneal injection once on the 1st day of 8 days inducing bronchial asthma and rhinitis. The amount of IL-13 was measured and quantified by the enzyme immunosorbent detection method in the same manner.
The amount of IL-13 was measured and quantified by the enzyme immunosorbent detection method in the same manner.

[4] = tested on: ovalbumin-specific IgE; assay: Ovalbumin-specific IgE secretion in mouse plasma, ovalbumin-induced bronchial asthma and rhinitis mouse model; type: in vivo; conditions: 1 mg/kg IP
Procedure: as §1
Ovalbumin is an allergy-causing substance mainly contained in egg whites. […] After completion of the experiment, the mouse was anesthetized by injecting a mixture of zoletil (250 mg/kg) and rompun (50 mg/kg) intraperitoneally, and the chest was opened. 0.8 mL blood was collected by puncture of the heart with a 26 gauge 1 mL syringe coated with heparin. The collected blood was centrifuged at 4° C., 3000 rpm for 10 minutes to obtain plasma components. The amount of ovalbumin-specific IgE in the blood serum obtained through the above process was measured and quantified by enzyme immunosorbent detection method using mouse OVA specific IgE kit (Biolegend, USA).
Next, in order to confirm whether there is an effect of inhibiting ovalbumin-specific IgE secretion in plasma even when administered in a small number of times, the dTBP2 of Preparative Example 4 and Example 3 was administered to the mouse model of Example 4-1 through intraperitoneal injection once in 4 days for a total of 2 times for 8 days inducing bronchial asthma and rhinitis. The amount of ovalbumin-specific IgE secretion was measured and quantified by the enzyme immunosorbent detection method in the same manner.
In addition, the dTBP2 of Preparative Example 4 and Example 3 was administered to the mouse model of Example 4-1 through intraperitoneal injection once on the 1st day of 8 days inducing bronchial asthma and rhinitis. The amount of ovalbumin-specific IgE secretion was measured and quantified by the enzyme immunosorbent detection method in the same manner.
The amount of ovalbumin-specific IgE secretion was measured and quantified by the enzyme immunosorbent detection method in the same manner.

[5] = Pharmacokinetic analysis in ICR mice; type: in vivo; conditions: IV, 10 mg/kg
Procedure: The dTBP2 of Preparative Examples 4 and Example 3 was added to a solution prepared in DMSO:PEG400:DW=5:55:40, and this was administered at the concentration of 5 mL/kg. Blood samples were taken at 0.083, 0.25, 0.5, 1, 2, 4, and 8 hours post injection. The blood was centrifuged at 4° C., 3000 rpm for 10 minutes, to which cold acetonitrile containing internal standard was added in an amount 4 times the plasma component, and then deproteinization was carried out. After centrifugation again at 4° C., 13000 rpm for 10 minutes, the supernatant was collected and analyzed by Agilent 6460 LC-MS/MS. Pharmacokinetic analysis was performed with Phoenix WinNonlin (Pharsight ver 6.4, USA) using a non-compartmental analysis model.

[6] = microsomes; for Mouse (%) remaining after reaction: 0.5 h
Procedure: (§2) Upon completion of the reaction, cold acetonitrile containing internal standard was added, and then deproteinization was carried out. The reactant was centrifuged at 4° C., 4000 rpm for 15 minutes, and the supernatant was analyzed by LC-MS/MS. The system was verified with buspirone, a reference material.

[7] = microsomes; for Human (%) remaining after reaction: 0.5 h
Procedure: as §2

Example 3: dTBP2 (WYVYPSM) conjugated at the N-terminal with methoxy polyethylene glycol propionaldehyde (10 kDa) ({mPEG propionaldehyde 10 kDa}-WYVYPSM)
reduction of increased eosinophils vs positive control [1]: about 55% | reduction of IL-4 secretion ([2]; 8 times daily for 8 days, FIG. 14): about 60% | inhibiting IL-4 secretion ([2]; once in 4 days for a total of 2 times (FIG. 15) and once on the 1st day (FIG. 16)): effective | IL-4 secretion inhibitory effect ([2]; once on the 5th day of 8 days, FIG. 17): effectively inhibited | reduction of IL-13 secretion ([3]; 8 times daily for 8 days, FIG. 18): about 20% | inhibiting IL-13 secretion ([3]; once in 4 days for a total of 2 times (FIG. 19) and once on the 1st day (FIG. 20)): effective | IL-13 secretion inhibitory effect ([3]; once on the 5th day of 8 days, FIG. 21): inhibitory effect | inhibitory ability on ovalbumin-specific IgE secretion compared with dTBP2 of Preparative Example 4 ([4]; FIGS. 23 and 24): better | inhibiting ovalbumin-specific IgE secretion ([4]; once in 4 days for a total of 2 times (FIG. 23) and once on the 1st day (FIG. 24)): effective | ovalbumin-specific IgE secretion inhibitory effect ([4]; once on the 5th day of 8 days, FIG. 25): inhibitory effect | inhibiting ovalbumin-specific IgE secretion in plasma (in words) ([4]; plasma, 8 times daily for 8 days): very effective | reduction of ovalbumin-specific IgE secretion ([4]; plasma, 8 times daily for 8 days, FIG. 22): about 50% | AUClast [5]: 2.83 µg·h/mL | AUC∞ [5]: 3.15 µg·h/mL | CL (clearance from plasma) [5]: 3.29 L/h/kg | T1/2 (half life) [5]: 3.18 h | Vss (steady-state volume of distribution) [5]: 7.37 L/kg | increase of half-life compared to the dTBP2 of Preparative Example 4 [5]: about 1.6 times | initial plasma concentration relative to the dTBP2 of Preparative Example 4 [5]: about 1000 times | stability in plasma ([5]; FIG. 26, versus Preparative Example 4): improved | Mouse (%) remaining after reaction [6]: more than 75% | Mouse (%) remaining after reaction ([6]; pH 7.4): 75.26% | half-life according to the evaluation criteria ([6]; mouse): 1 to 3 h | half-life according to the evaluation criteria ([7]; human): 1 to 3 h | Human (%) remaining after reaction [7]: more than 75% | Human (%) remaining after reaction ([7]; pH 7.4): 75.77%
